Our source for the switch fluorescence ratio values is the supplement of paper PMC10126150.

The subject of the data set is ATP. The data set is described as follows: switch fluorescence ratio, 500 uM ATP over buffer (Cy3 cluster intensity, sum of 5 cycles each) (fold (ratio)); higher = stronger signal-on switching upon ATP binding; sequences stand for … in TCGTCGGCAGCGTCAGATGTGTATAAGAGACAGTTTTTTTTTTTTTTTTTTTTTTTTT…TC. The note with it: aptamer strand: ATP DNA aptamer (quencher-CACCTGGGGGAGTATTGCGGAGGAAGG + anchor), 100 nM annealed; ATP concentration: 500 uM. In short, it runs like this: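 Five buffer/ATP imaging cycles were run on Cy3-labelled switching-strand clusters on a modified Illumina MiSeq flow-cell, with NaOH stripping and re-annealing between cycles. In each cycle, clusters annealed to 100 nM quencher-labelled ATP aptamer were imaged in selection buffer, then after 15 min with 500 uM ATP at 22 °C. Per cluster, the fluorescence ratio is summed target-cycle over summed buffer-cycle Cy3 intensity, averaged per switch-domain sequence. Only clusters within 100-1000 RFU were kept.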

± gives the standard deviation of the averaged measurements.
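Further: ATP exposure 15 min at 22 °C before imaging.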

Consider GGGTTAAGCT, for which the switch fluorescence ratio is 0.989 ± 0.029.

For GGGTTAAGGA, the switch fluorescence ratio worked out at 0.989 ± 0.036.

As for GGGTTAAGTC, the switch fluorescence ratio was 0.983 ± 0.028.

Take GGGTTAATGC: the switch fluorescence ratio was found to be 1.03 ± 0.047. As to GGGTTACGAT, the switch fluorescence ratio came out at 0.994 ± 0.021. As to GGGTTAGAAG, the switch fluorescence ratio was 0.9797 ± 0.008. Consider GGGTTAGACT, for which the switch fluorescence ratio was found to be 1.07 ± 0.086. As to GGGTTAGCCT, the switch fluorescence ratio was 0.999 ± 0.011. GGGTTAGGTA: the switch fluorescence ratio was 0.96 ± 0.053. Take GGGTTATACG: the switch fluorescence ratio worked out at 1.04 ± 0.031.

In the case of GGGTTATCCT, the switch fluorescence ratio amounted to 1.07 ± 0.047. For GGGTTATGGA, the switch fluorescence ratio was found to be 0.971 ± 0.021.

Regarding GGGTTATTCT, the switch fluorescence ratio is 1.01 ± 0.049. As for GGGTTCACGG, the figure is 1 ± 0.014; as for GGGTTCCGTG, 1.01 ± 0.024; as for GGGTTCGGGG, 1 ± 0.056.

Take GGGTTCTGTA: the switch fluorescence ratio worked out at 0.985 ± 0.03. For the sequence GGGTTCTTAT, the switch fluorescence ratio worked out at 0.992 ± 0.027. For GGGTTGAAAA, the switch fluorescence ratio turned out to be 0.999 ± 0.039. As for GGGTTGAATG, the figure is 0.978 ± 0.014; as for GGGTTGACTT, 1.015 ± 0.0018.

As to GGGTTGAGAG, the switch fluorescence ratio came out at 0.985 ± 0.026. Take GGGTTGATTA: the switch fluorescence ratio worked out at 0.9898 ± 0.0084. As for GGGTTGCAGC, the figure is 0.992 ± 0.032. In the case of GGGTTGCCGA, the switch fluorescence ratio was found to be 1.09 ± 0.19. As for GGGTTGGAAA, the figure is 0.989 ± 0.03. Take GGGTTGGAGG: the switch fluorescence ratio was determined as 0.995 ± 0.021. On to GGGTTGTGTA, for which the switch fluorescence ratio amounted to 1 ± 0.014. As to GGGTTGTGTT, the switch fluorescence ratio amounted to 0.978 ± 0.013. As for GGGTTTACTA, the switch fluorescence ratio was found to be 0.9552 ± 0.0018. As for GGGTTTATAA, the switch fluorescence ratio amounted to 0.987 ± 0.023. As to GGGTTTATAT, the switch fluorescence ratio came to 0.997 ± 0.022. For the sequence GGGTTTATTT, the switch fluorescence ratio turned out to be 0.982 ± 0.014. For GGGTTTCAAT, the switch fluorescence ratio was found to be 0.9372 ± 0.0067. Consider GGGTTTCAGC, for which the switch fluorescence ratio came out at 1 ± 0.053. Turning to GGGTTTGAT, the switch fluorescence ratio came to 1.03 ± 0.025. As for GGGTTTGATG, the figure is 0.984 ± 0.035.

On to GGGTTTGGGA, for which the switch fluorescence ratio stood at 0.9899 ± 0.0088. Regarding GGGTTTGGTG, the switch fluorescence ratio was determined as 0.987 ± 0.02. Consider GGGTTTTGAA, for which the switch fluorescence ratio was 0.984 ± 0.021. As for GGGTTTTGG, the figure is 0.998 ± 0.017; as for GGGTTTTGGT, 0.978 ± 0.022. GGGTTTTTGA: the switch fluorescence ratio was determined as 1.02 ± 0.024.

In the case of GGGTTTTTTG, the switch fluorescence ratio is 1 ± 0.031. Turning to GGTAAAAGGT, the switch fluorescence ratio is 1.02 ± 0.051. Take GGTAAAATTT: the switch fluorescence ratio came to 1 ± 0.03. In the case of GGTAAAGACG, the switch fluorescence ratio is 0.992 ± 0.013.

With GGTAAAGTTG, the switch fluorescence ratio was 1.07 ± 0.098. For GGTAAATATG, the switch fluorescence ratio came to 1 ± 0.019. Turning to GGTAAATATT, the switch fluorescence ratio is 0.9981 ± 0.0046.

On to GGTAACCGGG, for which the switch fluorescence ratio was 1.019 ± 0.0016.

On to GGTAACTTTG, for which the switch fluorescence ratio came to 0.989 ± 0.031. As for GGTAATTGGG, the figure is 1.19 ± 0.27; as for GGTAATTTTT, 1.01 ± 0.034.

Regarding GGTACCAGTT, the switch fluorescence ratio was determined as 1.01 ± 0.012. Regarding GGTACCATTG, the switch fluorescence ratio stood at 0.991 ± 0.03. On to GGTACCCTGG, for which the switch fluorescence ratio turned out to be 1.03 ± 0.014. Regarding GGTACTATTT, the switch fluorescence ratio was determined as 1 ± 0.026. GGTACTCGGG: the switch fluorescence ratio worked out at 0.961 ± 0.013. With GGTACTCGTT, the switch fluorescence ratio amounted to 0.991 ± 0.016. In the case of GGTACTCTTT, the switch fluorescence ratio was 1 ± 0.037. In the case of GGTACTGGGA, the switch fluorescence ratio came to 0.997 ± 0.0025. In the case of GGTAGAGACT, the switch fluorescence ratio was 0.9755 ± 0.0023. As for GGTAGAGGGC, the figure is 0.973 ± 0.061.

As to GGTAGAGTTG, the switch fluorescence ratio was determined as 0.9758 ± 0.0062. In the case of GGTAGATGTC, the switch fluorescence ratio worked out at 1.01 ± 0.054. With GGTAGCGGGG, the switch fluorescence ratio stood at 1.02 ± 0.014.

As to GGTAGGAAAA, the switch fluorescence ratio came to 0.972 ± 0.076.

On to GGTAGGAGCT, for which the switch fluorescence ratio stood at 1.02 ± 0.058. As for GGTAGGGAGC, the figure is 0.993 ± 0.055; as for GGTAGGGTGC, 0.985 ± 0.074. As for GGTAGTACGG, the switch fluorescence ratio amounted to 0.983 ± 0.014. On to GGTAGTAGAG, for which the switch fluorescence ratio is 1.02 ± 0.011. Consider GGTAGTAGTA, for which the switch fluorescence ratio came to 1 ± 0.034. Take GGTAGTGAGT: the switch fluorescence ratio was 0.9765 ± 0.0078. As for GGTAGTGTGG, the switch fluorescence ratio was found to be 0.992 ± 0.023. As for GGTATAGGCT, the figure is 0.996 ± 0.014. As for GGTATAGGGT, the figure is 0.981 ± 0.01.

In the case of GGTATCGGTA, the switch fluorescence ratio is 1.005 ± 0.0094. Regarding GGTATCGGTT, the switch fluorescence ratio worked out at 0.992 ± 0.045. On to GGTATGACCC, for which the switch fluorescence ratio is 1.0394 ± 0.00014. As for GGTATGAGAC, the figure is 1.01 ± 0.044. As for GGTATGGAGT, the figure is 1.013 ± 0.0057; as for GGTATGGGAT, 1.022 ± 0.0059.

As to GGTATGGGGG, the switch fluorescence ratio was 1.02 ± 0.031. As to GGTATGTGTT, the switch fluorescence ratio was determined as 0.987 ± 0.04.

With GGTATTACGT, the switch fluorescence ratio was 0.972 ± 0.032. GGTATTGGGG: the switch fluorescence ratio was 1.03 ± 0.034. As to GGTATTTACA, the switch fluorescence ratio was found to be 1.034 ± 0.0033. Turning to GGTCAAGCTG, the switch fluorescence ratio came out at 1 ± 0.044. As for GGTCAGGGTC, the figure is 1.01 ± 0.062; as for GGTCATCTTG, 0.975 ± 0.02. With GGTCATTTTT, the switch fluorescence ratio stood at 0.995 ± 0.021. For GGTCCAGTGA, the switch fluorescence ratio was 1.02 ± 0.023. With GGTCCATGGG, the switch fluorescence ratio worked out at 0.967 ± 0.035. As for GGTCCGCATA, the figure is 2.82 ± 1.2; as for GGTCCGTCGT, 1.02 ± 0.038. As for GGTCCGTTTC, the figure is 1.01 ± 0.056; as for GGTCCTGGAC, 1.02 ± 0.019. As for GGTCCTGGTT, the figure is 0.9859 ± 0.0021; as for GGTCGAGGTT, 0.991 ± 0.035; as for GGTCGCAGGG, 1 ± 0.026. With GGTCGCGGGT, the switch fluorescence ratio was determined as 1 ± 0.038. As for GGTCGGCATA, the figure is 1.01 ± 0.042; as for GGTCGGGGAT, 1.01 ± 0.022; as for GGTCGGTAGA, 0.998 ± 0.015. Turning to GGTCGTTGAA, the switch fluorescence ratio came out at 1.02 ± 0.057.

Take GGTCTACAGA: the switch fluorescence ratio stood at 1.02 ± 0.011. Regarding GGTCTACTAG, the switch fluorescence ratio is 0.999 ± 0.04. As for GGTCTAGGGT, the figure is 1.03 ± 0.025.

Regarding GGTCTATTTT, the switch fluorescence ratio was determined as 0.986 ± 0.023.

Consider GGTCTGGTTT, for which the switch fluorescence ratio came to 0.956 ± 0.013. In the case of GGTCTTAGAA, the switch fluorescence ratio is 1.033 ± 0.0062. As for GGTCTTGCGA, the figure is 0.9755 ± 0.0078. As for GGTCTTTAGG, the switch fluorescence ratio amounted to 0.99184 ± 0.00074.

As for GGTCTTTGAA, the switch fluorescence ratio was found to be 0.979 ± 0.023.

With GGTGAAAAGC, the switch fluorescence ratio turned out to be 1.02 ± 0.059. Consider GGTGAAGGTG, for which the switch fluorescence ratio worked out at 1.355 ± 0.0092. For the sequence GGTGAAGTCA, the switch fluorescence ratio came to 1 ± 0.024. As to GGTGAAGTGT, the switch fluorescence ratio was 1 ± 0.0051.
